Publication PMC4935545 (Molecular cell, 2016)

B1: S. pombe Mis18 (recombinant) (natural protein, UniProt Q9P802 1-194, looked up)
chain: MSQTETSHSGYIDFKKESQPSVFQCKKCFQIVGDSNAWVISHREYLSFTLSDAVENSVRVEDTFKRSDDGLCVYSELSCTRCNEVIGKVYNSTPIYLDDIRDMYTFSMDKLQAYQLGNKTVNPEGLTRYQVDLEMREDIIKLKSFCLSLYEKFELHDETLRSVKETISSLKKPKIEGKEGKKEKARTYSKRTRK

Tests used:
[1] = target: His-tagged Mis18α (human) (UniProt Q9NYP9); assay: SEC + other: glycerol gradient sedimentation
MBP-HJURP^R1 (human) [2] = target: MBP-HJURP^R1 (human) (UniProt Q8NCD3); assay: SEC + other: glycerol gradient sedimentation
[3] = target: Strep-tagged Mis18β (human) (UniProt O43482); assay: SEC + other: glycerol gradient sedimentation
MBP-HJURP^R1 (human) [4] = target: MBP-HJURP^R1 (human) (UniProt Q8NCD3); assay: pull-down
mCLI-Mis18α (human) = mCLI-Mis18α (human) (UniProt Q9NYP9)
[5] = target: the molecule itself; assay: SEC + other: glycerol gradient sedimentation

Sequence of MBP-HJURP^R1 (human) (Q8NCD3 348-555): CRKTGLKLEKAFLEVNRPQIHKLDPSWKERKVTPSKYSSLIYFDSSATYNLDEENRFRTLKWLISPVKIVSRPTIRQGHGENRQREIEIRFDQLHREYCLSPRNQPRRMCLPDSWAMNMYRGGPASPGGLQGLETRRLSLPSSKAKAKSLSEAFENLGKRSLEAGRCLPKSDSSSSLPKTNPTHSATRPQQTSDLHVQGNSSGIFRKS
Sequence of mCLI-Mis18α (human) (Q9NYP9 whole entry): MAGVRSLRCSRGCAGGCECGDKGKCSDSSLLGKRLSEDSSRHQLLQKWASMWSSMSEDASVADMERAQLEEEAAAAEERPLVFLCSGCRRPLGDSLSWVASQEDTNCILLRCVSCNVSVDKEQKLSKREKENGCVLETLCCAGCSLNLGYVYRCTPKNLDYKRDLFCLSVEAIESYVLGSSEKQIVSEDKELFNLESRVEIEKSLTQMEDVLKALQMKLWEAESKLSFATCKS
Sequence of Strep-tagged Mis18β (human) (O43482 whole entry): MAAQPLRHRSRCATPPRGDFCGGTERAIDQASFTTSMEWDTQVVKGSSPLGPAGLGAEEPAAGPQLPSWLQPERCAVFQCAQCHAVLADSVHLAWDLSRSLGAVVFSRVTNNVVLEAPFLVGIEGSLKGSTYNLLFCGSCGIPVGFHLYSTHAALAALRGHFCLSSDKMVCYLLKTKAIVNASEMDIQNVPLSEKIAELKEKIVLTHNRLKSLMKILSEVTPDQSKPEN

Molecule	stoichiometry N (MBP-HJURP^R1 (human) [2])	stoichiometry N [3]	other results
His-tagged Mis18α (from UniProt Q9NYP9 1-233) (natural protein)	1	1	stoichiometry N [1]: 2
Mis18α-β heterotetramer (preformed from recombinant Mis18α and Mis18β) (from UniProt Q9NYP9 1-233; O43482 1-229) (complex)	–	–	fold binding against Mis18α or Mis18β alone (MBP-HJURP^R1 (human) [4]): 2 fold
GFP-Mis18β (from UniProt O43482 1-229) (natural protein)	–	–	percent of transfected cells with recruitment to the array (mCLI-Mis18α (human)): 100%
Strep-tagged Mis18β (from UniProt O43482 1-229) (natural protein)	1	2	–
B1	–	–	stoichiometry N [5]: 4
